Data reported in patent US10934351B2, “Cancer stem cell-specific molecule” (CHUGAI SEIYAKU KABUSHIKI KAISHA, priority 2011, dated 2021).

B1: EPCAM (protein)
chain: QEECVCENYKLAVNCFVNNNRQCQCTSVGAQNTVICSKLAAKCLVMKAEMNGSKLGRRAKPEGALQNNDGLYDPDCDESGLFKAKQCNGTSMCWCVNTAGVRRTDKDTEITCSERVRTYWIIIELKHKAREKPYDSKSLRTALQKEITTRYQLDPKFITSILYENNVITIDLVQNSSQKTQNDVDIADVAYYFEKDVKGESLFHSKKMDLTVNGEQLDLDPGQTLIYYVDEKAPEFSMQGLKAGVIAVIVVVVIAVVAGIVVLVISRKKRMAKYEKAEIKEMGEMHRELNA
B2: BMP4: bone morphogenetic protein 4, polypeptide of SEQ ID NO: 4 (R&D Systems) (protein, listed as Homo sapiens)
chain: MIPGNRMLMVVLLCQVLLGGASHASLIPETGKKKVAEIQGHAGGRRSGQSHELLRDFEATLLQMFGLRRRPQPSKSAVIPDYMRDLYRLQSGEEEEEQIHSTGLEYPERPASRANTVRSFHHEEHLENIPGTSENSAFRFLFNLSSIPENEVISSAELRLFREQVDQGPDWERGFHRINIYEVMKPPAEVVPGHLITRLLDTRLVHHNVTRWETFDVSPAVLRWTREKQPNYGLAIEVTHLHQTRTHQGQHVRISRSLPQGSGNWAQLRPLLVTFGHDGRGHALTRRRRAKRSPKHHSQRARKKNKNCRRHSLYVDFSDVGWNDWIVAPPGYQAFYCHGDCPFPLADHLNSTNHAIVQTLVNSVNSSIPKACCVPTELSAISMLYLDEYDKVVLKNYQEMVVEGCGCR

Columns and labels:
[1] = tested on: irinotecan-non-treated PLR123; assay: Flow cytometry (FCM) binding activity of commercially available antibodies to cell-surface antigens; parameters: species or system human; conditions: with antibody
Method: (§1) The present inventors tested whether an anti-tumor effect can be expected with target therapy using a membrane protein expressed at a high level as the target in irinotecan-treated or non-treated PLR59 and PLR123. Commercially available antibodies shown in Table 12 were assessed by flow cytometry (FCM) for the binding activity to antigens expressed on the cell surface of irinotecan-treated or non-treated PLR59 or PLR123.

[2] = tested on: irinotecan-non-treated PLR59; assay: as above; parameters: species or system human; conditions: with antibody
Method: as §1

[3] = tested on: irinotecan-non-treated PLR123; assay: Internalization activity / anti-tumor effect with Mab-ZAP or Rat-ZAP (CellTiter-Glo); assay type: cell-based, human; conditions: with Mab-ZAP or Rat-ZAP 1 μg/ml, 72 hours
Method: (§2) Mab-ZAP and Rat-ZAP are anti-mouse IgG antibody and anti-rat IgG antibody, respectively, conjugated with saporin, a toxin that inhibits protein synthesis (Advanced Targeting Systems). To assess the activity of internalization into irinotecan-non-treated cells, PLR59 and PLR123 cells were seeded at a cell density of 30000 cells/80 μl/well to respective wells of a 96-well plate. Following day, each antibody solution was added at a final concentration of 0.01, 0.1, or 1 μg/ml to the respective wells. Then, Mab-ZAP or Rat-ZAP was added at a final concentration 1 μg/ml to the respective wells, and the plate was incubated at 37° C. for 72 hours in a CO2 incubator. To assess the activity of internalization into irinotecan-treated cells, PLR59 and PLR123 cells were seeded in a 96-well plate, and irinotecan was added at a final concentration of 15 μM to each well. The plate was incubated at 37° C. for 72 hours in a CO2 incubator. Various antibodies were assessed for the activity of internalization to cells cultured as described above in the presence or absence of irinotecan. For assay, the various antibodies were each assessed for the internalization activity into cells contained in each well where the medium was replaced with the same irinotecan-free medium as used for irinotecan-non-treated cells. Seventy-two hours after addition of antibodies and Mab-ZAP or Rat-ZAP, 10 μl of 3% SDS (Nacalai Tesque) was added to each well of the plate. The cells in the plate were lysed thoroughly by stirring the plate using a plate mixer. Then, 100 μl of CellTiter-Glo™ Luminescent Cell Viability Assay (Promega) was added to each well. The mixture in each well was assayed to determine its luminescent signal. […] In Table 14, symbols, −, +, ++, and +++, represent relative values for the internalization activity when a test antibody was assayed at a concentration of […]. […] Symbols, −, +, ++, and +++, indicate that the relative value is less than 5%, 5% or more and less than 15%, 15% or more and less than 25%, and 25% or more, respectively.

[4] = tested on: irinotecan-treated PLR123; assay: as above; assay type: cell-based, human; conditions: PLR123, Irinotecan-treated (15 μM, 72 hours)
Method: as §2

irinotecan-treated PLR59 = assay: as above; assay type: cell-based, human; conditions: PLR59, Irinotecan-treated (15 μM, 72 hours)
Method: as §2

[5] = tested on: irinotecan-non-treated PLR59; assay: as above; assay type: cell-based, human; conditions: with Mab-ZAP or Rat-ZAP 1 μg/ml, 72 hours
Method: as §2

PLR123 = assay: Differentiation-enhancing effect of BMP4 (CK20 expression, quantitative real-time PCR); assay type: cell-based, human; conditions: BMP4 20 nM; irinotecan-non-treated and irinotecan-treated PLR123 (FIG. 73B)
Method: (§3) BMP4 was assessed for the differentiation-enhancing effect on irinotecan-non-treated and irinotecan-treated PLR59 and PLR123. To assess the differentiation-enhancing effect on irinotecan-non-treated cells, PLR59 and PLR123 cells suspended in the media where BMP4 (R&D Systems; a final concentration of 20 nM) or a control buffer was added to culture media were seeded at a cell density of 5×10^5 cells/1.5 ml/well to each well of a 12-well plate. The cells were passaged while changing the culture media with the same type of medium 2, 4, and 7 days after seeding. To assess the differentiation-enhancing effect on irinotecan-treated cells, PLR59 or PLR123 was seeded at a cell density of 17×10^5 cells/5 ml/flask to a 12.5-ml culture flask. Following day, irinotecan was added at a final concentration of 15 μM. The flask was incubated at 37° C. for 72 hours in a CO2 incubator. Then, the medium in the flask was changed with a medium containing BMP4 or a control buffer. The medium was further changed with the same type of medium 2, 4, and 7 days after the initial medium change. […]
(§4) Quantitative real-time PCR was carried out using the cDNAs isolated as described above.

PLR59 = assay: as above; assay type: cell-based, human; conditions: BMP4 20 nM; irinotecan-non-treated and irinotecan-treated PLR59 (FIG. 73A)
Method: as §3, §4

| Molecule | binding activity by flow cytometry (FCM), Antibody + [1] | binding activity by flow cytometry (FCM), Antibody + [2] | internalization activity level [3] | internalization activity level [4] | internalization activity level (irinotecan-treated PLR59) | internalization activity level [5] | CK20 expression level (PLR123) | CK20 expression level (PLR59) |
| --- | --- | --- | --- | --- | --- | --- | --- | --- |
| B1 | 7701 | 7563 | +++ (25% or more) | +++ (25% or more) | +++ (25% or more) | +++ (25% or more) |  |  |
| B2 |  |  |  |  |  |  | elevated CK20 levels | elevated CK20 levels |
